Experimental data: PMC7782867 (2020)
Square brackets hold non-standard residues; d marks the D form. Ends that are not written are not given here. pS = N[C@@H](COP(=O)(O)O)C(=O)O

Assays:
[1] = target: T1, CRIPT (Drosophila melanogaster); test: ITC
T1 chain: YRQS[pS]T

[2] = target: T2, CRIPT (Drosophila melanogaster); test: ITC
T2 chain: GKKIMNTKNYKQSST

[3] = target: T3, CRIPT (Drosophila melanogaster); test: ITC
T3 chain: YRQSST

[4] = target: T4, ancestral Eukaryota CRIPT; test: stopped-flow
T4 chain: YKQSSV

[5] = target: T5, CRIPT (Homo sapiens); test: ITC
T5 chain: YKQTSV

[6] = target: T5, CRIPT; test: stopped-flow
[7] = target: T6, CRIPT (Hydra vulgaris); test: stopped-flow
T6 chain: YRQTSC

[8] = target: T7, CRIPT (Octopus bimaculoides); test: stopped-flow
T7 chain: YRQSSV

B1: DLG PDZ3 α3 PDZ3-α3 (protein)
chain: REPRTITIQKGPQGLGFNIVGGEDGQGIYVSFILAGGPADLGSELKRGDQLLSVNNVNLTHATHEEAAQALKTSGGVVTLLAQYRPEEYNRFEARI
- Kd [1]: 40000 nM
- Kd [2]: 34000 nM

B2: DLG PDZ3 PDZ3 (protein)
chain: EPRTITIQKGPQGLGFNIVGGEDGQGIYVSFILAGGPADLGSELKRGDQLLSVNNVNLTHATHEEAAQALKTSGGVVTLLAQYRPEEY
- Kd [3]: 27000 nM
- Kd [4]: 670 nM

B3: DLG4 PDZ3 PDZ3 (protein)
chain: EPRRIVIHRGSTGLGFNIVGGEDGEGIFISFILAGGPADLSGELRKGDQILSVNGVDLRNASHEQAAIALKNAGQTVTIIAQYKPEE
- Kd [5]: 700 nM
- Kd [6]: 395 nM
- Kd [4]: 2180 nM
- Kd [7]: 360 nM
- Kd [8]: 1240 nM
